The target in one experiment is T1, cynomolgus PD1 (cynomolgus, UniProt B0LAJ3 25-170).
T1 construct: Recombinant protein for ELISA; also called cynomolgus PD1 protein
Description: ELISA, cynomolgus PD1 coated, anti-human IgG-HRP detection. As for the experimental part:
(§1) To evaluate PD1 binding activity of the test bispecific antibodies, human PD1 and cynomolgus PD1 diluted in PBS were coated on a microplate respectively at 4° C. overnight. Three-fold dilution of test antibodies starting from 100 nM were added to each well and incubated for 1 hours at 25° C. Then, the plates were washed with ELISA washing buffer (1×DPBS with 0.5% Tween-20) and incubated with peroxidase conjugated anti-human IgG secondary antibody for 60 minutes at 25° C. After washed four times with ELISA washing buffer, the plates were detected by TMB-ELISA substrate solution, then stopped by ELISA stopping solution and analyzed by microplate reader at OD450 nm.

The next experiment deals with T2, human PD1 (human, UniProt Q15116 25-167, limits assumed).
T2 construct: Recombinant protein for ELISA; also called human PD1 protein
Description: ELISA, human PD1 coated, anti-human IgG-HRP detection. How it is done:
as §1
For orientation: In an ELISA, binding on a coated surface is turned into a signal by an enzyme label.

For experiment [1], the target named is T3, human PD-1 overexpressed on cells (human, UniProt Q15116 25-288).
T3 construct: whole, on cells; also called CHO-K1 cells overexpressing human PD-1; Jurkat-PD1 cells
The experiment is described as follows: flow cytometry on CHO-K1 cells overexpressing human PD-1, PE secondary antibody. As for the experimental part: (§2) To further determine PD-1 binding activity of the bispecific antibodies, CHO-K1 cells overexpressing human PD-1 were incubated with different concentrations of anti-PD1-VEGF bispecific antibodies and reference antibodies at 4° C. for 30 minutes. Then, the cells were washed twice with FACS buffer and stained with PE conjugated secondary antibody at 4° C. for 30 minutes. After wash twice with FACS buffer, MFI of PE was analyzed by a NovoCyte flow cytometer.
(In flow cytometry, cells or beads pass a laser one at a time.)

For experiment [2], the target named is T3, human PD-1 overexpressed on cells. Description: flow cytometry on CHO-K1 cells overexpressing human PD-1; column headed OD450 but the text says MFI of PE. On the set-up: unit not given here. As for the experimental part:
as §2

The target is the same in experiment [3]. Description: cell-based or functional assay.

Numbering of substitutions follows the chain as printed.

T1 sequence (B0LAJ3 entry or part of it limits assumed, form in doubt): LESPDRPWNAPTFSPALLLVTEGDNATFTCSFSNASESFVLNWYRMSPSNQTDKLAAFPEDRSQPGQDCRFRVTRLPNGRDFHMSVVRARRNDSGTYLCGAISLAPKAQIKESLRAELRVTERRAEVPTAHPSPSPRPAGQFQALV
T3 sequence (Q15116 25-288): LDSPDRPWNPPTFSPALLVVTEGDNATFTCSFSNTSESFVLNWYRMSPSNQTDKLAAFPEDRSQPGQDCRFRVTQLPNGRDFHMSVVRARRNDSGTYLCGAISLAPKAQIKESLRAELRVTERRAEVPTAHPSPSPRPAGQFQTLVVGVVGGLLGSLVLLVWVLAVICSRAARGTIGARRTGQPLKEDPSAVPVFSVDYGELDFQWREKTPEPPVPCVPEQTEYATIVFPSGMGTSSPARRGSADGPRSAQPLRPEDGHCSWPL
T2 sequence (Q15116 25-167 limits assumed): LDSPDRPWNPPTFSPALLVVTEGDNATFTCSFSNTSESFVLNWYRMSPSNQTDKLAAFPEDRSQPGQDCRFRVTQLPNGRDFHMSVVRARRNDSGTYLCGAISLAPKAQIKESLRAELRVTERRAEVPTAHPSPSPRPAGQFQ

B1: Pembrolizumab (antibody, V domains shown)
VH: QVQLVQSGVEVKKPGASVKVSCKASGYTFTNYYMYWVRQAPGQGLEWMGGINPSNGGTNFNEKFKNRVTLTTDSSTTTAYMELKSLQFDDTAVYYCARRDYRFDMGFDYWGQGTTVTVSS
VL: EIVLTQSPATLSLSPGERATLSCRASKGVSTSGYSYLHWYQQKPGQAPRLLIYLASYLESGVPARFSGSGSGTDFTLTISSLEPEDFAVYYCQHSRDLPLTFGGGTKVEIKR
Turning to B1, in the experiment with cynomolgus PD1, the concentration giving a half-maximal response (EC50) came out at 0.057 nM and the “Top (OD450)” value worked out at 1.17 OD450.

B2: VH18 (anti-PD-1 VHH) (VHH)
VHH: EVQLVESGGGLVQPGGSLRLSCAVSGNIYNRNFMGWFRQAPGKGREGVSAIYTGTSRTYYADSVKGRFTISRDNAKNTVYLQMNSLRPEDTAVYYCAADLRDGFWDTGVWNTWGQGTLVTVSS
notes: also called VH18 VHH; anti-PD1 parental antibody VH18
Turning to B2, the EC50 in the experiment with human PD1 came to 0.083 nM; in experiment [1], 2.35 nM; with cynomolgus PD1, 0.151 nM. For the same molecule, the “Top (OD450)” value in the experiment with human PD1 stood at 1.75 OD450; with cynomolgus PD1, 1.56 OD450; in experiment [2], 963000. The “EC50 (nM), PD1 blocking activity (PD1 reporter gene assay)” value in experiment [3] is 11.2 nM. The “Top (RLU), PD1 blocking activity (PD1 reporter gene assay)” value in experiment [3] is 191000 RLU.

B3: VH8M1 (anti-PD-1 VHH) (VHH)
VHH: B2 VHH with R45L, A75S, P88A, D102E
notes: also called VH8M1 VHH; anti-PD-1 parental nanobody
Take B3: a half-maximal response in experiment [1] (EC50) required 0.759 nM. For the same molecule, the “Top (OD450)” value in experiment [2] is 448000. In experiment [3], the “EC50 (nM), PD1 blocking activity (PD1 reporter gene assay)” value is 13.3 nM and the “Top (RLU), PD1 blocking activity (PD1 reporter gene assay)” value was found to be 201000 RLU.

The EC50 is the concentration giving half of the maximal effect.

The record behind these values is patent US20250019442A1 (LANOVA MEDICINES, published 2025).
